Experimental data from patent US20230293638A1 (Eli Lilly, published 2023).
Numbered stars: 1 amine (or outer) side, 2 acyl side, 3 side chain; on linkers, the order of the positions; unused ones are H or OH. Square brackets hold non-standard residues; d marks the D form. Side chains are listed from the residue outwards. Ends that are not written are not given here. * marks the point of attachment. C20 diacid = O=C(O)CCCCCCCCCCCCCCCCCCC(=O)*; γGlu = O=C(O)[C@H](CCC(=O)[*:2])N[*:1]; AEEA = NCCOCCOCC(=O)O; Aib = CC(C)(N)C(=O)O

T1: human gastric inhibitory peptide receptor (human, UniProt P48546 22-466)
T1 sequence (looked up): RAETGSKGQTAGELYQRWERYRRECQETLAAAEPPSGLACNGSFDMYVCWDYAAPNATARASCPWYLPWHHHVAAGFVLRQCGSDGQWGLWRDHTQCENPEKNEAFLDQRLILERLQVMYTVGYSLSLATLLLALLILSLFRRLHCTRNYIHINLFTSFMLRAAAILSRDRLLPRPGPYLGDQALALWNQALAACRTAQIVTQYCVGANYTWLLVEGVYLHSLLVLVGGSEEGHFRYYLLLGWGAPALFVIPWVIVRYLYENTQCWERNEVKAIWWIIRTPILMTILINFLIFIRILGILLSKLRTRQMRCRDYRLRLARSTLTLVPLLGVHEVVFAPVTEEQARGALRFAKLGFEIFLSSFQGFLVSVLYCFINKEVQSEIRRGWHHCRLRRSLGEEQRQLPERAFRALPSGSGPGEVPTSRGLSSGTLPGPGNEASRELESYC


How the values were obtained:
human GLP-1 receptor = human GLP-1 receptor (human, UniProt P43220 24-463); assay: cell-based or functional assay
[1] = biological target: T1, human gastric inhibitory peptide …; assay: cell-based or functional assay

Binder	hGLPIR cAMP EC50 ratio (human GLP-1 receptor)	hGIPR cAMP EC50 ratio [1]
YXEGTFTSDYXILLDKKAQXAFIEYLIEGGPSSGAPPPS (Aib2; D-Ser11; K17((2-[2-(2-Amino-ethoxy)-ethoxy]-acetyl)2-(γGlu)-CO-(CH2)18-CO2H); Aib20; C-terminal NH2) [Peptide 81]	0.063	
YXEGTFTSDYSILLDKKAQXAFIXYLIEGGPSSGAPPPS (Aib2; K17((2-[2-(2-Amino-ethoxy)-ethoxy]-acetyl)2-(γGlu)-CO-(CH2)18-CO2H); Aib20; D-Glu24; C-terminal NH2) [Peptide 84]	0.173	
YXXGTFTSDYSILLDKKAQXAFIEYLIEGGPSSGAPPPS (Aib2; Aad3; K17((2-[2-(2-Amino-ethoxy)-ethoxy]-acetyl)2-(γGlu)-CO-(CH2)18-CO2H); Aib20; C-terminal NH2) [Peptide 89]	0.175	
YXEGTFTSDYSILLDKKAQXAFIEYLIXGGPSSGAPPPS (Aib2; K17((2-[2-(2-Amino-ethoxy)-ethoxy]-acetyl)2-(γGlu)-CO-(CH2)18-CO2H); Aib20; D-Glu28; C-terminal NH2) [Peptide 83]	0.166	
YXEGTXTSDYSIXLDEKAQXEFIEYLIEGG (Aib2; αMeF(2F)6; αMeL13; K17((2-[2-(2-Amino-ethoxy)-ethoxy]-acetyl)2-(γGlu)-CO-(CH2)18-CO2H); Aib20; C-terminal NH2) [Peptide 103]	0.655	
YXEGTXTSDYSILLDKIAQXAFIEYLIKGG (Aib2; αMeF6; Aib20; K28((2-[2-(2-Amino-ethoxy)-ethoxy]-acetyl)2-(γGlu)-CO-(CH2)18-CO2H); C-terminal NH2) [Peptide 95]	0.0576	
Y[Aib]EGTFTSDYSILLDKIAQ[Aib]AFIEYLIK([AEEA-AEEA-γGlu-C20 diacid])GG-NH2 (N-terminus assumed; SMILES CC[C@H](C)[C@H](NC(=O)[C@H](CCCCN)NC(=O)[C@H](CC(=O)O)NC(=O)[C@H](CC(C)C)NC(=O)[C@H](CC(C)C)NC(=O)[C@@H](NC(=O)[C@H](CO)NC(=O)[C@H](Cc1ccc(O)cc1)NC(=O)[C@H](CC(=O)O)NC(=O)[C@H](CO)NC(=O)[C@@H](NC(=O)[C@H](Cc1ccccc1)NC(=O)[C@@H](NC(=O)CNC(=O)[C@H](CCC(=O)O)NC(=O)C(C)(C)NC(=O)[C@@H](N)Cc1ccc(O)cc1)[C@@H](C)O)[C@@H](C)O)[C@@H](C)CC)C(=O)N[C@@H](C)C(=O)N[C@@H](CCC(N)=O)C(=O)NC(C)(C)C(=O)N[C@@H](C)C(=O)N[C@@H](Cc1ccccc1)C(=O)N[C@H](C(=O)N[C@@H](CCC(=O)O)C(=O)N[C@@H](Cc1ccc(O)cc1)C(=O)N[C@@H](CC(C)C)C(=O)N[C@H](C(=O)N[C@@H](CCCCNC(=O)COCCOCCNC(=O)COCCOCCNC(=O)CC[C@H](NC(=O)CCCCCCCCCCCCCCCCCCC(=O)O)C(=O)O)C(=O)NCC(=O)NCC(N)=O)[C@@H](C)CC)[C@@H](C)CC) [Peptide 73]	0.0225	
YXEGTXTSDYSILLDKKAQXAFIEYLIEGG (Aib2; αMeF6; K17((2-[2-(2-Amino-ethoxy)-ethoxy]-acetyl)2-(γGlu)-CO-(CH2)18-CO2H); Aib20; C-terminal NH2) [Peptide 98]	0.384	
YXEGTXTSDXSIXLDXKAQXEFIXXLIEGGPSSGAPPPS (Aib2; αMeF(2F)6; 4Pal10; αMeL13; Orn16; K17((2-[2-(2-Amino-ethoxy)-ethoxy]-acetyl)2-(γGlu)-CO-(CH2)16-CO2H); Aib20; D-Glu24; αMeY25; C-terminal NH2) [Peptide 4]	1.41	
YXEGTXTSDXSIXLDXKAQXEFIXXLIEGG (Aib2; αMeF(2F)6; 4Pal10; αMeL13; Orn16; K17((2-[2-(2-Amino-ethoxy)-ethoxy]-acetyl)2-(γGlu)-CO-(CH2)16-CO2H); Aib20; D-Glu24; αMeY25; C-terminal NH2) [Peptide 265]	3.27	9.77
YXEGTFTSDYSIXLDKIAQXAFIEYLIKGG (Aib2; αMeL13; Aib20; K28((2-[2-(2-Amino-ethoxy)-ethoxy]-acetyl)2-(γGlu)-CO-(CH2)18-CO2H); C-terminal NH2) [Peptide 97]	0.0268	
YXEGTXTSDYSIXLDEKAQXEFIEYLIEGG (Aib2; αMeF(2F)6; αMeL13; K17((2-[2-(2-Amino-ethoxy)-ethoxy]-acetyl)2-(γGlu)-CO-(CH2)16-CO2H); Aib20; C-terminal NH2) [Peptide 104]	1.85	
YXEGTXTSDYSIXLDKKAQXAFIEYLIEGG (Aib2; αMeF6; αMeL13; K17((2-[2-(2-Amino-ethoxy)-ethoxy]-acetyl)2-(γGlu)-CO-(CH2)18-CO2H); Aib20; C-terminal NH2) [Peptide 99]	0.629	
